Measurements taken from patent US20230243070A1 (Molecular Partners, published 2023).

B1: DARPin® protein #29 (designed binder)
chain: MRGSHHHHHHGSDLGKKLLQAARAGQLDEVRELLKAGADVNAKDRAGSTPLHLAAFRGHLEIVEVLLKAGADVNAKDAAGYTPLHLAALYGHLEIVEVLLKAGADVNAKDHAGSTPLHLAALAGHLEIVEVLLKAGADVNAQDKSGKTPADLAARAGHQDIAEVLQKAA
B2: DARPin® protein #31 (designed binder)
chain: MRGSHHHHHHGSDLGKKLLQAARAGQLDEVRELLKAGADVNAKDATGQTPLHVAAFRGHLEIVEVLLKAGADVNAKDKAGYTPLHIAAYAGHLEIVEVLLKAGADVNAKDHAGWTPLHLAAILGHLEIVEVLLKAGADVNAQDKSGKTPADLAARAGHQDIAEVLQKAA
B3: SEQ ID NO 95 (designed binder)
chain: GSDLGQKLLRAAQAGQDDEVRELLKAGADVNAKDEVGWTPLHLAAAWGHLEIVEVLLKAGADVNAKDHFGITPLHVAAELGHLEIVEVLLKAGADVNAQDLAGRAPADLAALEGHEDIAEVLQKAA
B4: SEQ ID NO 94 (designed binder)
chain: GSDLGQKLLEAARKGQDDEVRELLKAGADVNAKDKAGWTPLHLAAYFGHLEIVEVLLKAGADVNAKDVIGWTPLHLAAWQGHLEIVEVLLKAGADVNAQDLKGQTPADLAAQEGNEDIAEVLQKAA
B5: SEQ ID NO 110 (designed binder)
chain: GSDLGKKLLQAARAGQLDEVRELLKAGADVNAKDAAGWTPLHLAAAEGHLEIVEVLLKAGADVNAKDVVGQTPLHVAAVIGHLEIVEVLLKAGADVNAKDSAGYTPLHLAAREGHLEIVEVLLKAGADVNAQDKSGKTPADLAARAGHQDIAEVLQKAA
B6: SEQ ID NO 98 (designed binder)
chain: GSDLGDKLLFAAELGQDDEVRILLAAGADVNAKDSFGQTPLHRVAANHGHLEIVEVLLKAGADVNAKDSSGHTPLHVAALTGHLEIVEVLLKAGADVNAQDESGFTPADLAADVGHEDIAEVLQKAA
B7: SEQ ID NO 101 (designed binder)
chain: GSDLGEKLLAAALVGQDDEVRILLAVGADVNAKDVAGRTPLHRAALAGHLEIVEVLLKAGADVNAKDQSGFTPLHLAAVDGHLEIVEVLLKAGADVNAQDEIGATPADLAARIGHEDIAEVLQKAA
B8: SEQ ID NO 97 (designed binder)
chain: GSDLGKKLLQAARAGQLDEVRELLKADADVNAKDTWGYTPLHLAAFHGHLEIVEVLLKAGADVNAKDELGKTPLHLAAYVGPLEIVEVLLKAGADVNAKDQHGYTPLHIAAAYGHLEIVEVLLKAGADVNAQDKSGKTPADLAARAGHQDIAEVLQKAA
B9: SEQ ID NO 104 (designed binder)
chain: GSDLGQKLLQAAQLGQDDEVRELLKAGADVNAKDTFGQTPLHPAAWSGHLEIVEVLLKAGADVNAKDKWGVTPLHLAAVSGHLEIVEVLLKAGADVNAQDLEGRTPADLAAKQGHEDIAEVLQKAA
B10: SEQ ID NO 102 (designed binder)
chain: GSDLGHKLLIAAYLGQDDEVRILLAAGADVNAKDDFGITPLHVAAQVGHLEIVEVLLKAGADVNAKDKSGLTPLHLAAYYGHLEIVEDLLKAGADVNAQDYSGETPADLAASLGHEDIAEVLQKAA
B11: SEQ ID NO 100 (designed binder)
chain: GSDLGSKLLQAAAVGQDDEVRILLAAGADVNAKDDFGETPLHLAAWHGHLEIVEVLLKAGADVNAKDEQGFTPLHWAALTGHLEIVEVLLKAGADVNAQDKQGITPADLAANAGHEDIAEVLQKAA
B12: SEQ ID NO 105 (designed binder)
chain: GSDLGKKLLQAARAGQLDEVRELLKAGADVNAKDQEGRTPLHIAAAHGHLEIVEVLLKAGADVNAKDAYGYTPLHLAAFIGHLEIVEVLLKAGAEVNAKDKYGETPLHIAALTGHLEIVEVLLKAGADVNAQDKSGKTPADLAARAGHQDIAEVLQKAA
B13: SEQ ID NO 103 (designed binder)
chain: GSDLGNKLLWAAYQGQDDEVRILLAAGADVNAKDYLGWTPLHIAATSGHLEIVEVLLKAGADVNAKDWYGYTPLHLAAEWGHLEIVEVLLKAGADVNAQDKSGKTPADLAADSGHEDIAEVLQKAA
B14: SEQ ID NO 99 (designed binder)
chain: GSDLGAKLLFAAILGQDDEVRILLAAGADVNAKDETGHTPLHHAAHYGHLEIVEVLLKAGADVNAKDQYGFTPLHLAAYYGHLEIVEVLLKAGADVNAQDDDGITPADLAAAHGHEDIAEVLQKAA
B15: SEQ ID NO 96 (designed binder)
chain: GSDLGKKLLQAARAGQLDEVRELLKAGADVNAKDLTGITPLHIAAREGHLEIVEVLLKAGADVNAKDAWGFTPLHVAAWTGHLEIVEVLLKAGADVNAKDLLGETPLHLAAEAGHLEIVEVLLKAGADVNAQDKSGKTPADLAARAGHQDIAEVLQKAA
B16: SEQ ID NO 108 (designed binder)
chain: GSDLGKKLLQAARAGQLDEVRELLKAGADVNAKDQTGWTPLHIAAHTGHLEIVEVLLKAGADVNAKDAVGFTPLHVAAWSGHLEIVEVLLKDGADVNAKDTSGATPLHLAAEWGHLEIVEVLLKAGADVNAQDKSGKTPADLAARAGHQDIAEVLQKAA
B17: SEQ ID NO 109 (designed binder)
chain: GSDLGKKLLQAARAGQLDEVRELLKAGADVNAKDLSGVTPLHIAARSGHLEIVEVLLKAGADVNAKDAWGYTPLHVAAEHGHLEIVEVLLKAGADVNAKDHLGSTPLHIAASHGHLEIVEVLLKAGADVNAQDKSGKTPADLAARAGHQDIAEVLQKAA
B18: SEQ ID NO 107 (designed binder)
chain: GSDLGKKLLQAARAGQLDEVRELLKAGADVNAKDLTGITPLHVAARSGHPEIVEVLLKAGADVNAKDAWGFTPLHVAAYKGHLEIVEVLLKAGADVNAKDQLGETPLHLAAAEGHLEIVEVLLKAGADVNAQDKSGKTPADLAARAGHQDIAEVLQKAA
B19: SEQ ID NO 106 (designed binder)
chain: GSDLGKKLLQAARAGQLDEVRELLKAGADVNAKDLAGVTPLHVAARAGHLEIVEVLLKAGADVNAKDAWGFTPLHIAAYQGHLEIVEVLLKAGADVNAKDLLGSTPLHVAAETGHLEIVEVLLKAGADVNAQDKSGKTPADLAARAGHLDIAEVLQKAA
B20: SEQ ID NO 93 (designed binder)
chain: GSDLGTKLLFAATLGQDDEVRILLAAGADVNAKDTIGRTPLHVAAHYGHLEIVEVLLKAGADVNAKDIYGFTPLHLAAYFGHLEIVEVLLKAGADVNAQDKTGKTPADLAAVIGHEDIAEVLQKAA

target: NYESOAApMHC (HLA-A*0201:NYESO1-9VAA), biotinylated recombinant complex (human); assay: SPR (ProteOn), biotinylated pMHC on NLC chip

Does B1 bind?
Result: no binding

Does B2 bind?
Result: no binding

target: T1, EBNApMHC (HLA-A*0201:EBNA-1), biotinylated recombinant complex (human; Epstein Barr virus); assay: SPR (ProteOn), biotinylated pMHC on NLC chip

Does B1 bind?
Result: no binding (tested: 3.7 nM to 300 nM, or 250 nM single trace)

Does B2 bind?
Result: no binding (tested: 3.7 nM to 300 nM, or 250 nM single trace)

target: T1, EBNApMHC (HLA-A*0201:EBNA-1), …; assay: ribosome display selection, crude extract HTRF

Does B3 bind?
Result: binds

Does B4 bind?
Result: binds

Does B5 bind?
Result: binds

Does B6 bind?
Result: binds

Does B7 bind?
Result: binds

Does B8 bind?
Result: binds

Does B9 bind?
Result: binds

Does B10 bind?
Result: binds

Does B11 bind?
Result: binds

Does B12 bind?
Result: binds

Does B13 bind?
Result: binds

Does B14 bind?
Result: binds

Does B15 bind?
Result: binds

Does B16 bind?
Result: binds

Does B17 bind?
Result: binds

Does B18 bind?
Result: binds

Does B19 bind?
Result: binds

Does B20 bind?
Result: binds

target: T2, NYESOpMHC (HLA-A*0201:NYESO1-9V), biotinylated recombinant complex (human); assay: SPR (ProteOn), biotinylated pMHC on NLC chip, PBS with Tween
T2 construct: also called NY-ESO-1 peptide-MHC complex

With B1 as the binder, how does the Kd read?
Its Kd is 0.635 nM.

Which Kd does the source give for B2 here?
The Kd was 1.32 nM.
